This note sets out measurements from article PMC9135737.

The stoichiometry N is the number of molecules, sites or subunits per partner or assembly.

This test deals with Roseovarius indicus B108 MmtN (the sample called MmtN in the DLS analysis) (Roseovarius indicus B108). Kind of test: dynamic light scattering; DynaPro NanoStar, 4 °C, 2 μl of 2.5 mg ml^-1 protein in 10 mM Tris-HCl, 100 mM NaCl, pH 8.0.

Consider “Roseovarius indicus B108 MmtN (the sample called MmtN in the DLS analysis) (enzyme)”, for which the stoichiometry N was determined as 3.
